Here are results for two substances from patent US20100062462.

Where a chain is given by its changes, count along the chain named.

Data set [1] deals with T1, Flag-procaspase-8-Myc fusion polypeptide.
T1 sequence: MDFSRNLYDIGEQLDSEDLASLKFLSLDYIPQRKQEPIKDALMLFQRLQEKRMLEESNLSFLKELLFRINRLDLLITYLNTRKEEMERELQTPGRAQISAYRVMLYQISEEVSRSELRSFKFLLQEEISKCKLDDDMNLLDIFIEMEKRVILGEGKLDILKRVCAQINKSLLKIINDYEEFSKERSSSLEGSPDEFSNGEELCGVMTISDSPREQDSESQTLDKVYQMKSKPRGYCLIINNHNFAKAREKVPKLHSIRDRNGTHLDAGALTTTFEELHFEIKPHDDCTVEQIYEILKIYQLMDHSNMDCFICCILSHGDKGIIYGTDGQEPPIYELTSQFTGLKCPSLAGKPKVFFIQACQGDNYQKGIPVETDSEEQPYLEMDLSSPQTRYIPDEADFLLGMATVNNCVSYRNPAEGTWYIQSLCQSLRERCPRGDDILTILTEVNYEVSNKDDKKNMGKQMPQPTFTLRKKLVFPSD

For data set [2], the system named is T2, procaspase-8 F355R, F356N.
T2 sequence: T1 sequence with F355R, F356N

For another data set, the system named is T3, procaspase-8 p18 subunit.
T3 sequence: T1 sequence

Take HIV-1 protease: the “cleavage (autoradiography)” value was “Incubation of wild-type procaspase-8 with HIV protease resulted in a p41 procaspase-8 fragment” in data set [1] and “an almost negligible amount of cleavage was observed when procaspase-8 F355R, F356N was incubated with HIV protease” in data set [2]. Moreover, the “cleavage (LC-MS of the cleaved p18 fragment)” value in the data set with procaspase-8 p18 subunit is on record as “This fragment had a weight of 16158 mass units (cleaved form)”.

As for renin, the “cleavage (autoradiography)” value in data set [1] is on record as “another aspartyl protease, renin, did not cause procaspase 8 cleavage”.
